Results from US20150147270A1.

Columns and labels:
[1] = target: mouse F4/80 receptor expressed on macrophages (RAW 264.7 cells) (mouse) (UniProt Q61549); assay: cell-based or functional assay
[2] = target: mouse F4/80 receptor expressed on macrophages (RAW 264.7 cells) (mouse) (UniProt Q61549); assay: SPR (BI-2000), Fab'-covered NPs on a carboxydextran gold chip, RAW 264.7 cells injected at 5k cells/mL
[3] = target: mouse F4/80 receptor expressed on macrophages (RAW 264.7 cells) (mouse) (UniProt Q61549); assay: SPR (BI-2000), Fab'-covered NPs on a carboxydextran gold chip, RAW 264.7 cells injected at 10k cells/mL
[4] = target: mouse F4/80 receptor expressed on macrophages (RAW 264.7 cells) (mouse) (UniProt Q61549); assay: SPR (BI-2000), Fab'-covered NPs on a carboxydextran gold chip, RAW 264.7 cells injected at 2.5k cells/mL
[5] = target: mouse F4/80 receptor expressed on macrophages (RAW 264.7 cells) (mouse) (UniProt Q61549); assay: SPR (BI-2000), Fab'-covered NPs on a carboxydextran gold chip, RAW 264.7 cells injected at 7.5k cells/mL
[6] = target: mouse F4/80 receptor expressed on macrophages (RAW 264.7 cells) (mouse) (UniProt Q61549); assay: SPR, antibody-covered NPs coated on a gold chip, Raw 264.7 cells injected

Chain of UniProt Q61549 (Q61549 28-931): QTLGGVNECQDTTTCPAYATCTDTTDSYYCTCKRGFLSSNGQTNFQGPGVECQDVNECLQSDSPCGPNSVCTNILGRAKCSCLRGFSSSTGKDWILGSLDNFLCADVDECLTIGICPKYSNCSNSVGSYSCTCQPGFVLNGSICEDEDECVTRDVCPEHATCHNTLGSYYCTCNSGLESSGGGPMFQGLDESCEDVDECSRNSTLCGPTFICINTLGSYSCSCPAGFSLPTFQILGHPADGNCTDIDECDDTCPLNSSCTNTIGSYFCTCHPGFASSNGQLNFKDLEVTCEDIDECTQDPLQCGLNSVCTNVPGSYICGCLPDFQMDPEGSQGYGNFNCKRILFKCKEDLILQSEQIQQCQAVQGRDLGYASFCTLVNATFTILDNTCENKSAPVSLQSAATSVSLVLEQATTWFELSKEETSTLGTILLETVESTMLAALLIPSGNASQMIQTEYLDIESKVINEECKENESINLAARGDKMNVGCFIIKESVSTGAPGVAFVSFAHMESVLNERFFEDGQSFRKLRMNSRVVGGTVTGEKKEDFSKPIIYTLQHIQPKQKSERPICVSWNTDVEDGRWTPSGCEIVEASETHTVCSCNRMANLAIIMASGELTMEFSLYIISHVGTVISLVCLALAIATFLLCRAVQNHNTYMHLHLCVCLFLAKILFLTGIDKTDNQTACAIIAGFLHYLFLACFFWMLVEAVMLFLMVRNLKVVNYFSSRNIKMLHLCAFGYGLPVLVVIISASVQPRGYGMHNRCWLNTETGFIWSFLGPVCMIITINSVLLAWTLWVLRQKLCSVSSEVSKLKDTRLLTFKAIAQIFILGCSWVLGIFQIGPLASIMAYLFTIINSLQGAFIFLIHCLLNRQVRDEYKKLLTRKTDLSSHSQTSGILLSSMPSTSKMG

| average fluorescent intensity per unit of surface area of RAW 264.7 cells exposed to NPs loaded with FITC-tagged siRNA (15 minutes, 500 ug/mL); non-coated NPs gave 10279 AU/um^2 [1] [AU/µm^2] | percent of colonic MPs (CD11c(-)CD11b(+)F4/80(+)) with positive FITC signals by flow cytometry after gavage of DSS-treated mice with NPs loaded with FITC-tagged siRNA; non-coated NPs gave 19% [1] [%] | resonance angle deviation [2] [mDeg] | resonance angle deviation [3] [mDeg] | resonance angle deviation [4] [mDeg] | resonance angle deviation [5] [mDeg] | binding coefficient [6] | Substance |
| --- | --- | --- | --- | --- | --- | --- | --- |
| 51300 | 28 | 17 | 42 | 13 | 33 | – | Fab' fragment of the F4/80 antibody covalently attached to PLA-PEG nanoparticles |
| – | – | – | – | – | – | 50 | mouse F4/80 antibody grafted onto maleimide-polyethyleneglycol-poly(lactic acid) nanoparticles |
